Molecular target: West Nile virus envelope protein domain III (WNDIII, WNE-rDIII) (West Nile virus strain Wengler, UniProt P06935 P06935:582-692)
Test: ELONA; unmodified DNA unable to bind
Conditions: tags: 6xHis; with or without biotin acceptor peptide (BAP); label: 5' biotin

Chain of West Nile virus envelope protein domain III (WNDIII, WNE-rDIII) (P06935 582-692, one chain of several): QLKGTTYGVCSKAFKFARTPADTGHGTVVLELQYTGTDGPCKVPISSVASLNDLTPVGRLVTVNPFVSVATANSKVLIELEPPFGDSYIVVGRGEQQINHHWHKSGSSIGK

Binder | binding result
BN-B99-DNA unmodified (ssDNA) DNA: GAAGGTGAAGGTCGGCTGAAGCATCAGACCTAAGCCCAAATTGCCGCAGACTCGTTGTGAAGCTTAGGTCTAATGCACCATCATCACCATCTTC | no binding
BN-B03-DNA unmodified (ssDNA) DNA: GAAGGTGAAGGTCGGCTGAAGCATTAGACCTAAGCACGCTGCCACAAGTCCTGGTTCCCTGGCTTAGGTCTAATGCACCATCATCACCATCTTC | no binding

Source: patent publication US20170226511, “[…] FOR BINDING […] PROTEINS” (National University of Singapore, published 2017)
